Results reported in publication doi:10.1101/2022.06.08.495335.

Target: clathrin N-terminal domain (NTD) (UniProt Q00610)
Experiment: fluorescence polarisation + ITC

UniProt Q00610, sequence (Q00610 1-364): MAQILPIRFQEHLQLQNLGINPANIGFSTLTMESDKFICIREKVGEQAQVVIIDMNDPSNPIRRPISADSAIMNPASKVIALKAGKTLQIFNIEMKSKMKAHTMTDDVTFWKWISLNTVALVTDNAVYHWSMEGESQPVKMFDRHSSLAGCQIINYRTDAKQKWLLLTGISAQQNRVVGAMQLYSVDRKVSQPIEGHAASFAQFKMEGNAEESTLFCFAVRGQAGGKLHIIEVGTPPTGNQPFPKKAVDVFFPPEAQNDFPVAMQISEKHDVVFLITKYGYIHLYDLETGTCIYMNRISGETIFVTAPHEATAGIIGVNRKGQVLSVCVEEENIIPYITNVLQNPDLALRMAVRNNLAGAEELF

## HURP_(832-846) phosphorylated peptide (pS839) (from UniProt Q15398 832-846)
  fold increase in affinity against the wild-type peptide: 20 fold
